Measured values as given in the DeepSol protein solubility set.

Experiment: soluble on expression in E. coli; label from the status in PepcDB or PDB records

Row | Sequence | soluble on expression in E. coli
1 | MLSMCNKYPDFDDEERVRRVDDDFRDVITVFDAPFEGKSPSPAVIVFDELVDSDGSSKYLNFKMEQSYEKVDEIPEKIDAERIRYAIHLGSHSQKNVLQIFQSAYSDGYTEEDKNGKVPVGGKVKCAETETGFRTKINCENVVTAVNEYMDSNREKFGELRIETLNKAERNLDGYIYFSFLKQKPCRNLFIRIPPLE | not soluble
2 | MLSRLSSIFRYFGTTSTIATMSPKKVTIIGSGNWGSAIARIVGSTTKSFPDEFDPTVRMWVFEEIVNGEKLSEVINNRHENIKYLPGKVLPNNVVAVTDLVESCEGSNVLVFVVPHQFVKGICEKLVGKIPADTQAISLIKGVSTEKRGGLKLISEEIKEILKIEVSVLMGANLAPEVANDNFCEATIGCKRKAEDGPLLKKLFHTDNFRINVVEDAHTVELCGALKNVVACAAGFTDGLGYGDNTKAAVIRLGLMETTKFVEHYYPGSNLQTFFESCGIADLITTCYGGRNRKVCEAFVKTGKSMAEVEKELLNGQSAQGPLTAEEVYLMMHKTGLDAKFPLFTAVHKICAGEMKPAELVDCLRNHPEHM | not soluble
3 | MLSRNIGAVRGAHKAATTKPVEKVAKLGNGLTVGTIDSHKPIAHLVLAFRAGSRYEKANQAGLSHTIRNFVGRDTQEYFGNTVVWTLSQTGGVLKSFTSRDLFGVSLTIPRESTSVGLSVLGQVAGNPGFKPWEVEDVLPTMRADNGYRTAYDLVVDQIHKAAYRNGGLGNSIYAPCSKIGSICTSTLSSFAEQHFVTGNGVLFATNAVHDDLLLYGDNHAPIRSGNAASPSSSAYKGGEVRRDADSKYAHVIVAGEGAAGNNTKALATQAVLLTALGNSSPVKFNTGTTGVIAKAVGQNGSASAFQAVHADSGLAGVYLVVEGSQANQAVSNVVGALKSLKVADIEAVKKQAFNNALRASAHSDNFAIERASQLFQSQDNYIQQIPNVSASDVEVAAKKLTTKLSLASYGNVSEVPYVDTL | not soluble
4 | MLSRPSGTVAKTEFQLRRNVLPALKRFVSAAAKSAGVQEKTTVLENGLRVSSVELNGATSSIVLAFRAGSRYQPANKQGLTHLIRNSVGRDAPNFPGLALVWNTAQNGGNLTAVSNRDVLAIEVNVVRDQSAVVLSLLGQLGNNAFKPWDVEDVKHDTLPADATYLTGTTIAFEQLHQAAFRNGGLGLSNYSVNNVSAKDLSAFAKERLVAGEAVLVGVNVDHDTLVQAGSTQFPLAQNQPAKATPAKYFGGEARKDGRGNRSYVAIAGEGSAITSVKDVAVQAVVAQILLNAAQKVTSEAISVNVNYQDSGLVGVQFAACNTQITQVTKSIASAIKSAKADGLDNAKNTAAVQVLSDAQHASEVALEKATQVLAGVEVSPREFADAIRAVTAQDVTQALSRVNGKLSLAAYGSTSLVPYLDEL | not soluble
5 | MLSTGLDELVYRSNLIGSDRAVCNWGGGNTSMKTVEKDFRGREIAVMWVKGSGSDLATMGAKNFTGLNLEDIRPLIEREEMSDEEMVEYLGHCMIDRNHPRPSIETLLHAFLPFKHVDHTHPDAIISICCADNGKEIAKNLFGDRFVWVPYVRPGFSLSKLIAEGVQKNPHAELVLMEKHGLVVWGETAKESYDRTISVINEAEAYIRSRINESVIFGGGKLEHHHHHH | not soluble
6 | MLSTLSKSARLNQTRFIRLSHSAAAAKDAKPKKVAAVDSPSFVMNLFRGKAVTDQVFPYPLNMTDEQKETLGMVMSPLEKMLVEVNDVVKNDETSDIPRAVLDQFAELGTFGVLVPPELEGSGFNNSQMARVAEIVGAYDLGFGVVMGAHQSIGYKGILLEGTDAQKQKYLPDLATGRKFAAFALTEPTTGSDASSVRTRAELSADGKHYVLNGGKIWISNGGFADVFTVFAQTPVKQADGSTKDKMSAFIVERAFGGVTSGPQEKKMGIKGSNTTEVHFDNLKIPVENLLGKEGEGFKVAMNILNNGRFGIPAACTGAMKHCIQKTVDHITTRVQFGKKLQEFGNIQEKLVEMISKLYATESIVYMLSSNMDRGIKEYQLEAAIGKVLASENAWLVCDDAIQVHGGMGFMRETGLERVLRDLRIFRIFEGANDVLRLFIALTGAQHAGKHLAEQASGVGGLIGLAVSRVTGGNTGSNFGQVVDASLQDSAKVLDQQIALFGQTVQGLLMKHKKGIIDRQYEMHRVADAAINIYSSAAVLSRATYAIKNKSSSADFERKVATYYVDKAMKSSNRFLKDAGSGVENASKVATIESLAKEVCGNGGLTLQHPVEL | not soluble
7 | MLTAQTKNTQTLMPLTERVNVQADSARINQIIDGCWVAVGTNKPHAIQRDFTNLFDGKPSYRFELKTEDNTLEGYAKGETKGRAEFSYCYATSDDFKGLPADVYQKAQITKTVYHHGKGACPQGSSRDYEFSVYIPSSLDSNVSTIFAQWHGMPDRTLVQTPQGEVKKLTVDEFVELEKTTFFKKNAGHEKVVRLDKQGNPMKDKNGKPVYKAGKLNGWLVEQGGYPPLAFGFSGGLFYIKANSDRKWLTDKDDRCNANPGKTPVMKPLTSEYKASTIAYKLPFADFPKDCWITFRVHIDWTVYGKEAETIVKPGMLDVRMDYQEQGKKVSKHIVNNEKILIGRNDEDGYYFKFGIYRVGDSTVPVCYNLAGYSERLE | soluble
8 | MLTDLSIRNLAIIDSLHVSFDRGLTVLTGETGAGKSIIIDAVNLIMGGRASAELVRTGEEEATVEALFSLPTDAPLGQRLAAMGLDCDGELLVKRVVSRSGRNRVFIGGGLSTLAMLSDISRELVNIYGQHESQTLLRPENHLRLLDGFAGLDSLRADYAAIFDRYRETEARLRELDEGEREAARRLDLLSFQVEEIHAAALAPGEEEALAGERELLVNAERLSRGSEEAYEALYGDESSVLHLLARVKGRVAEISGVDASLAPLLDVVESAAAQLEDAALTLRGYGARIEADPARLEAVDERLDLIRRLKKKYAPTVEEIIAYGEEAAREMELLLNRDRTRSDLDRELETLAGRVRETGHGLSAKRHEAAKRLKAAMEREIHELAMKHALFDVAFEELPEPRQTGLDSVTFLFSPNPGEEPKPLARIASGGELSRLMLALKQVHPESDVPTLIFDEVDTGIGGATSALVGEKLKRVSRAQQVLCITHHPQVAAFADRHYKVEKRVEGGRTATAVTPLEGEDRVAEMARMLGGVTITGTTLDHAREMIEGARRAAVGG | not soluble
9 | MLTSAQTRSLFRNNIFYKYRTAISVCQSIGRSIRSEEDWAYTFTLDSRFPKYISDHRNLINESVSFYEKRIPDFPSEKSIQKLKNEIFRNLPFLEHHHHHH | not soluble
10 | MLTSHFPLPFAGHRLHIVDFDASSFREHDLLWLPHHDRLRSAGRKRKAEHLAGRIAAVHALREVGVRTVPGMGDKRQPLWPDGLFGSISHCATTALAVISRQRIGIDIEKIMSQHTATELAPSIIDSDERQILQASLLPFPLALTLAFSAKESVYKAFSDRVTLPGFNSAKVTSLTATHISLHLLPAFAATMAERTVRTEWFQRDNSVITLVSAITRVPHDRSAPASILSAIPR | not soluble
11 | MLTSKPEIKNSELNSYLVGGAVRDKLLNRPIKDEDYLVVGASIEQMIKLGYHQVGKDFPVFLHPKTKAEYALARTERKQGQGYTGFSCYFAPDVTIEQDLLRRDLTVNAMAMDHNGKIIDPYNGQNDLNDRILRHVSDAFIEDPLRVLRVARFAARYHKYGFTIADETLTLMQEISASGELKCLTPERVWQEMQLSLADGGANSDTNSGNPEVFFEVLQQCNALEELWPELAVLWGIPNPALWHPEICSGIHTMMVLQQAVLLTQAIPDEHSDHRTAVRFAALCHDLGKGVTSDKLWPSHKGHETSGLPLVERICGQLKVPSHYKQLALKVCEFHLHCHKAFELKASTLLKMFNQLDIWRKPEEFDLFLMACKSDFLGRLGFENRAYPQEQYLQAAVKAARKVTAQPFLEKGLQGLAIKEAMAKERLSVIANIKADFAHLNPTPQ | not soluble
12 | MLYPDTGRRSLVQYLSGSTGEPDGRTENRRMFMDTIGEAVLRSCQPYVRTVFNSVVVLNIMRTTHIVSMDVAHLANISASGQMFNYSLSFLGMKHVILMLWRCW | not soluble
13 | MLYQPSLLKSRLTPAPPGFSFQPQPLLNSDMDPVRNLESLGNYTVYQDSSQCFWQHQNFTSNREHNPALRKTKICDHWRRSGSCSYGDACWYAHGEDDLRKVVRIDRSNEEENERPATAEIQKSPTKRASTNVKGLTVNIPSNTAFKEQNSSMPLSPAQERWISMSIGAVPPPTSSAAEKDAISSLSKNGVEQEQEKKHEICSRDDDIDDYGFLSPNPFPYPQQSMFSAGFPSHGHHQRSSNRATQGVPSQQFGGPVNIPGQDPNRLGSGAYHIPPQHQRSRSNVRTSREVGGPPPQFQQAIWNVAGEIYQRQKDIEIGGQRVGPNDRQPTQQKNSEMDRLLSKLKMKDLNYLRFMIERGYINERDVSRQTSSDQMSNGHHFNAPMTPPYHPRLAGNEPNTSDCHYHGTGNRLSNFMPGRHRPPHQHPIHHHHQSQHQLHQHQQYLHHAAQQYRYSHQQGPQHPFAALLSPPEISESLLPPDDSFSIWLEPKPKKQSGAMTRTRGAATINESSSAASLLTKMDALRSDKYPITDEEMMMANDFVRQGDRDDKLSSSESSSPVVMSLMELLSNENLLDQVATEKPKCSMFDFDTLKIAETLKEPLQSSECSTTTSSKMTCSPMFFFVDEKTPNYDGSGSKSLFTPSSSAGQTPSFLEPCDFFAATGSCPFGDACHQSHSI | not soluble
14 | MMAEFETVNDVKQLNGLALAYIGDAVYEVYVRRHLLAGGSVRPHELHRRAVRYVSARAQARVILALLDEGVLTEEEKDIVRRGRNAKSGTIPKNTDVQTYRHSTAFEALIGYHFLVNNEKRVDELIGRSFAIIEREERALE | not soluble
15 | MMDLELPPPGLPSQQDMDLIDILWRQDIDLGVSREVFDFSQRRKEYELEKQKKLEKERQEQLQKEQEKAFFAQLQLDEETGEFLPIQPAQHIQSETSGSANYSQVAHIPKSDALYFDDCMQLLAQTFPFVDDNEVSSATFQSLVPDIPGHIESPVFIATNQAQSPETSVAQVAPVDLDGMQQDIEQVWEELLSIPELQCLNIENDKLVETTMVPSPEAKLTEVDNYHFYSSIPSMEKEVGNCSPHFLNAFEDSFSSILSTEDPNQLTVNSLNSDATVNTDFGDEFYSAFIAEPSISNSMPSPATLSHSLSELLNGPIDVSDLSLCKAFNQNHPESTAEFNDSDSGISLNTSPSVASPEHSVESSSYGDTLLGLSDSEVEELDSAPGSVKQNGPKTPVHSSGDMVQPLSPSQGQSTHVHDAQCENTPEKELPVSPGHRKTPFTKDKHSSRLEAHLTRDELRAKALHIPFPVEKIINLPVVDFNEMMSKEQFNEAQLALIRDIRRRGKNKVAAQNCRKRKLENIVELEQDLDHLKDEKEKLLKEKGENDKSLHLLKKQLSTLYLEVFSMLRDEDGKPYSPSEYSLQQTRDGNVFLVPKSKKPDVKKN | not soluble
16 | MMDPISIINKYYTEGTNQYHILVEHSRDVAALALRIVEIHPELQADRLFVEEAAMLHDIGIFLTDAESIACFGKEPYILHGYMGANILRKEGYPRHALVCERHTGSGLTSEDIAARQIALPPGIYTPQSIEEKIVCYADKFFSKTKLHRQKKLEDVRRSMLSYGADSLRRFDEMHALFKIPLG | soluble
17 | MMEGLDDGPDFLSEEDRGLKAINVDLQSDAALQVDISDALSERDRVNFTVHTKSSLPNFKQNEFSVVRQHEEFIWLHDSFVENEDYAGYIIPPAPPRPDFDASREKLQKLGEGEGSMTKEEFTKMKQELEAEYLAIFKKTVAMHEVFLCRVAAHPILRKDLNFHVFLEYNQDLSVRGKNKKEKLEDFFKNMVKSADGVIVSGVKDVDDFFEHERTFLLEYHNRVKDASAKSDRMTRSHKSAADDYNRIGSSLYALGTQDSTDICKFFLKVSELFDKTRKIEARVSADEDLKLSDLLKYYLRESQAAKDLLYRRSRSLVDYENANKALDKARAKNKDVLQAETSQQLCCQKFEKISESAKQELIDFKTRRVAAFRKNLVELAELELKHAKGNLQLLQNCLAVLNGDT | soluble
